Assay results: paper PMC2764309 (Science (New York, N.Y.), 2009)

T1: HipA mutant D309Q (Escherichia coli, UniProt P23874 1-440, D309Q)
T1 sequence: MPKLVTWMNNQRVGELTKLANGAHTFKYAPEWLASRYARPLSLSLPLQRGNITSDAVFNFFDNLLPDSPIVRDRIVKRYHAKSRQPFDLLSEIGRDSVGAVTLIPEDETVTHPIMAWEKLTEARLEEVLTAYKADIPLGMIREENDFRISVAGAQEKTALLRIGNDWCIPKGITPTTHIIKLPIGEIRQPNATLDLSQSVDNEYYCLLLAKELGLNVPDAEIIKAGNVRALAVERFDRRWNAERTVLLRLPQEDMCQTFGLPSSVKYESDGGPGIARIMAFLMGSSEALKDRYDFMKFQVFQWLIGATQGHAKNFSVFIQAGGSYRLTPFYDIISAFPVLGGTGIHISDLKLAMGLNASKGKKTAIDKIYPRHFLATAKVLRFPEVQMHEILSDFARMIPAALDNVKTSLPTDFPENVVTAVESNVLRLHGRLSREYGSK

B1: HipB (natural protein)
chain: MMSFQKIYSPTQLANAMKLVRQQNGWTQSELAKKIGIKQATISNFENNPDNTTLTTFFKILQSLELSMTLCDAKNASPESTEQQNLEW

Tests used:
HipA mutant D309Q [1] = molecular target: T1, HipA mutant D309Q; experiment: fluorescence polarisation
HipA mutant D309Q [2] = molecular target: T1, HipA mutant D309Q; experiment: crystal structure
crystal structure = molecular target: the molecule itself; experiment: crystal structure

| Binder | Kd (HipA mutant D309Q [1]) | binding result (HipA mutant D309Q [2]) | stoichiometry N (crystal structure) |
| --- | --- | --- | --- |
| IREGGRTVGA [EF-Tu peptide IREGGRTVGA] | 15 ± 5 µM |  |  |
| B1 |  | binds | 2 |
